According to patent US20240425583A1, “METHODS AND COMPOSITIONS RELATED TO MCL-1 AND BIM HETERODIMER ANTIBODIES” (priority 2021, published 2024):

What was measured:
[1] = target: T1, covalent Mcl-1-Bim complex (Homo sapiens, UniProt Q07820); test: Flow cytometry detection of covalent Mcl-1-Bim complex immobilized on GSH beads; type: binding; conditions: directly labeled and secondary antibody detection, FIG. 12
T1 construct: mutated to delete their transmembrane domains; made in house; host or cells: E. coli BL21 (D3) for the Mcl-1 fusion; peptide UV-crosslinked to it
From the text: In the experiments on the left side of the graph for HSMCB (i.e., the first two columns from the left on the graph), the HSMCB antibody is an antibody having CDRs selected from SEQ ID NO: 1, SEQ ID NO: 2, SEQ ID NO: 3, SEQ ID NO: 4, SEQ ID NO: 5, SEQ ID NO: 6, and having a variable heavy chain selected from SEQ ID NO: 7, and a variable light chain selected from SEQ ID NO: 8. In the next experiment near the middle of the graph for HSMCB (i.e., the second set of two columns in the middle on the graph), the antibody is an antibody having CDRs selected from SEQ ID NO: 9, SEQ ID NO: 10, SEQ ID NO: 11, SEQ ID NO: 12, SEQ ID NO: 13, SEQ ID NO: 14, and having a variable heavy chain selected from SEQ ID NO: 15, and a variable light chain selected from SEQ ID NO: 16. The antibody reactive with BcL-XL-Bim is used as a negative control, and Mcl1 (which recognizes both Mcl-1 monomer and Mcl-1-Bim complex) is used as a positive control. The signals using a directly labeled primary antibody (i.e., the first column in each set of two columns throughout the graph) and a secondary antibody detection system (i.e., the second column in each set of two columns throughout the graph) are shown.
AML patient samples were BH3 profiled in the experiments of this example. […] Patient samples were fixed, permeabilized, stained with HSMCB and anti-Mcl-1 antibody, and measured by flow cytometry. […]

MCL-1/BIM heterodimer = target: T2, MCL-1/BIM heterodimer (Homo sapiens, UniProt Q07820); test: ELISA: Mcl-1-GST on glutathione-coated plates with or without Bim-BH3 peptide, detected with HSMCB antibody; type: binding; conditions: Mcl-1-GST with or without Bim-BH3 peptide, FIG. 1
T2 construct: mutated to delete their transmembrane domains; made in house; host or cells: E. coli BL21 (D3)
Procedure: Genes encoding human Mcl-1 were cloned and mutated to delete their transmembrane domains. The mutated genes were then linked to a nucleotide sequence encoding Glutathione-S-transferase (GST) and cloned into pGEX 4T-1 to obtain DNA constructs for expressing Mcl-1(Δ)-GST fusion proteins. DNA constructs for expressing full length human Bim, all fused with GST, were prepared by recombinant technology.
The plates were then washed three times with PBS containing 0.05% TWEEN 20™ (PBST) and blocked with 50 μl PBS containing 2.0% bovine serum albumin (BSA) at room temperature for 1 hour. The plates were then washed again three times with PBST. Afterwards, 100 μl of a hybridoma supernatant was added to designated wells. The plates were incubated at room temperature for 1 hour on a shaker apparatus and then washed three times with wash buffer. Next, 50 μl of HRP-conjugated goat anti-mouse IgG Fc (Cappel Laboratories), diluted 1:1000 in assay buffer (0.5% bovine serum albumin, 0.05% % TWEEN 20™, 0.01% Thimersol in PBS), was added to each well. […] 50 μl of […] was added to each well to stop the reaction and absorbance at 450 nm in each well is read in a microliter plate reader. […]

T2 sequence (Q07820 1-327 limits assumed): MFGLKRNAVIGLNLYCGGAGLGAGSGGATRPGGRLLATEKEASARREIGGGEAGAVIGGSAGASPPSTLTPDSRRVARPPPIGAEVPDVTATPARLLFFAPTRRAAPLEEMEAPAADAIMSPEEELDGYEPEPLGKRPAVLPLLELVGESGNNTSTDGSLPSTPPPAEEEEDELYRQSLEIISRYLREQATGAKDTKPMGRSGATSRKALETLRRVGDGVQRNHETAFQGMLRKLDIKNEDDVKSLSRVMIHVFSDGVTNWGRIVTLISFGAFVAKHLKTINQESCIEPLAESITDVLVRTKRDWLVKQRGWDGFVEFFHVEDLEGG
T2 sequence (O43521 146-166 partner limits assumed): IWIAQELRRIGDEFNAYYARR
T1 sequence (Q07820 1-327): as the sequence (Q07820 1-327 limits assumed) above

Mcl-1-Bim bead detection [1]	Molecule	selective binding to the MCL-1/BIM heterodimer versus monomer (MCL-1/BIM heterodimer)
demonstrated	HSMCB (SEQ ID NO: 15, SEQ ID NO: 16): MCL-1/BIM heterodimer antibody, CDRs SEQ ID NO: 9-14, variable heavy chain SEQ ID NO: 15, variable light chain SEQ ID NO: 16 (antibody, V domains shown) VH: MDWIWIMLHLLAAATGLQSQVHLQQSGSELRSPGSSVKLSCKDFDSEVFPIAYMSWVRQKPGHGFEWIGDILPSIGRTIYGEKFEDKATLDADTVSNTAYLELNSLTSEDSAIYYCARQDTYYAMDYWGQGTSVTVSS VL: MHFQVQIFSFLLISASVIMSRGQIVLTQSPAIMSASPGEKVTITCSASSSVSYMHWVQQKPGTSPKLWIYSTSNLASGVPARFRGSGSGTSYSLTISRMEAEDAATYYCQQRSSYPYTFGGGTKLEIK	preferentially react with the heterodimer and not to the monomer
demonstrated	HSMCB (SEQ ID NO: 7, SEQ ID NO: 8): MCL-1/BIM heterodimer antibody, CDRs SEQ ID NO: 1-6, variable heavy chain SEQ ID NO: 7, variable light chain SEQ ID NO: 8 (antibody, V domains shown) VH: MNFGLSLIFLVLVLKGVQCEVQLVESGGDLVKPGGSLKLSCAVSGFTFSSYAMSWVRQTPAKRLEWVATISSGGFATYYPDTVKGRFTISRDNAKNTLYLQMSSLRSEDTAMYYCARHGGGSYGWFAYWGQGTLVTVSE VL: MLSLAPLLSLLLLCVSDSRAETTVTQSPASLSVATGEKVTIRCITSTDIDDDMNWYQQKPGEPPKLLISEGNTLRPGVPSRFSSSGYGTDFVFTIENTLSEDFADYYCLQSDNMPYTFGGGTKLEIK	preferentially react with the heterodimer and not to the monomer
